Reference: patent EP4725968A1 (Salubris (Chengdu) Biotech Co., Ltd., dated 2024)
Residue numbers refer to the chain shown, from its start.

T1: GPC3-A peptide
T1 construct: Peptide of the GPC3 antigen
T1 peptide: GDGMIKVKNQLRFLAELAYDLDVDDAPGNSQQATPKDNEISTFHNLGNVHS

T2: GPC3-B peptide
T2 peptide: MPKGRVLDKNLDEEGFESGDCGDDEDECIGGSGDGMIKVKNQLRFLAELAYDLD

T3: GPC3-B3 (human)
T3 construct: Overlapping peptide of GPC3-B
T3 peptide: DKNLDEEGFESG

T4: GPC3-B8
T4 construct: also called long fragments containing GPC3-B3
T4 peptide: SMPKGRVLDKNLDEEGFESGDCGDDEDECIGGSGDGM

B1: hYP7HM (antibody, human IgG1, kappa, L234A L235A, V domains shown)
VH: EVQLVESGGGLVQPGGSLRLSCAASGFTFNKNAMNWVRQAPGKGLEWVGRIRNKTNNYATYYADSVKGRFTISRDDSKNSLYLQMNSLKTEDTAVYYCVAGNSFAYWGQGTLVTVSA
VL: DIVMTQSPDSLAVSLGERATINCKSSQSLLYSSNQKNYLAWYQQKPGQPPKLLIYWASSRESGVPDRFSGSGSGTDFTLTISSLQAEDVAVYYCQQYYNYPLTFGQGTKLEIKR
notes: Control anti-GPC3 antibody; also called control antibody hYP7HM; control anti-GPC3 antibody hYP7HM
B2: GC90 (antibody, V domains shown)
VH: QVQLLESGGGLVQPGGSLRVSCAASGFTFNSYAMSWVRQAPGKGLEWVASIKSSGDRVQYADSVKGRFTISRDNSKNTVYLEMNSLRAEDTAIYYCAKPQWSSPQRTFEVWGQGTPVTVSS
VL: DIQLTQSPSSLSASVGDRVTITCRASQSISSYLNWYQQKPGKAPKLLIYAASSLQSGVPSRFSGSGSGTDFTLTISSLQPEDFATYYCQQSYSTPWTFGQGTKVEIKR
notes: Human IgG1 / kappa; also called GC90 monoclonal antibody; humanized monoclonal antibody GC90
B3: GC139 (antibody, V domains shown)
VH: EVQLVESGGGLIQPGGSLRLSCAASGFTFSSYAMHWVRQAPGKGLEYVSAISSNGGSTYYADSVKGRFTISRDNSKNTLYLQMSSLRPDDTAVYYCVRGWIRPPPGSFDLWGQGTTVTVSS
VL: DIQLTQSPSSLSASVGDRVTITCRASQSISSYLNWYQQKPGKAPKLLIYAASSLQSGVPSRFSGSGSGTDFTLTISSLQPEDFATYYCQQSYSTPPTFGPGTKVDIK
notes: Detected with anti-human IgG-Fc-HRP
B4: GC053 (antibody, V domains shown)
VH: B3 VH with V5L, I12V, D62N, S84G
VL: NIQMTQSPSSLSAFVGDRVTITCRASQSISRYLNWYQHKPGQAPKLLMYAASTLQDEVPSRFSGSGSGTYFTLTISSLEPEDFATYYCQQSYSTPPTFGGGTKVEIK
notes: as for B3
B5: GC037 (antibody, V domains shown)
VH: B3 VH with V5L, I12V, D62N, D73H, N74P, T78I, Y80F, Q82E, S84N, T116P
VL: AIRLTQFPSSLSASVGDRVTITCRARQSIDNYLNWYQEKPGKAPKLLIYAASSLQSGVPSRFSGSGSGTEFTLTISSLQPDDFAAYYCQQSYDSPPTFGQGTKVEIK
notes: as for B3
B6: GC147 (antibody, V domains shown)
VH: B3 VH with I12V, D62N, S84G, P88A, D89E, T91M, T116P
VL: AIRLTQSPSSLSASVGDRVSITCRASQSISTFLNWYQQKPGKAPNLLIYSASTLQSGVPSRFSGSGSGTDFTLTISSLQPEDFATYYCQQSYSSPPTFGQGTKLEIK
notes: as for B3
B7: GC008 (antibody, V domains shown)
VH: EVQLLESGGGLVQPGGSMRLSCAASEIDFSVYALGWSRQAPGKQRELVATITTSSTTTYADSVKGRFTISRDNAKNTVYLQMNSLKPEDTAVYYCHTLRRTGSGIVPGRIWGQGTPVTVSS
VL: DIQLTQSPSSLSASVGDRVTITCQASQDIDNSVTWYQQRPGKAPSLLISDASILESGVPSRFSGRGSGTHFTLSITSLQPEDIATYYCQQYENLPITFGQGTRLEIK
notes: Detected with anti-human IgG-Fc-HRP in the ELISA, so it carried a human Fc
B8: GC025 (antibody, V domains shown)
VH: EVQLLESGGGVVQPGRSLRLSCAASGFTFSSYAMHWVRQAPGKGLEWVAVISYDGSNKYYADSVKGRFTISRDNSKNTLYLQMNSLRAEDTAVYYCARRQRAAIDYWGQGTTVTVSS
VL: DIQLTQSPSSLSASVGDRVTITCRASQSISSYLSWYQQKPGKAPKLLIYGASSLQSGVPSRFSGSGSGTDFTLTISSLQPEDFATYSCQQSYSTQFTFGPGTKVDIK
notes: as for B3
B9: GC011 (antibody, V domains shown)
VH: EVQLLESGGGVVQPGRSLRLSCAASGFTFSSYGMHWVRQAPGKGLEWVAVISYDGSNKYYADSVKGRFTISRDNSKNTLYLQMNSLRAEDTAVYYCAKNPSLDYWGQGTTVTVSS
VL: NIQMTQSPSSLSASVGDRVTITCRASQSITRYLNWYQQKPGKGPKLLIYAASRLQSGVPSRFSGSGSGTDFTLTISSLQPEDFATYYCQQSHSIPRTFGQGTKLEIK
notes: as for B3
B10: GC067 (antibody, V domains shown)
VH: EVQLLESGGGVVQPGRSLRLSCAASGFTFSSYAMHWVRQAPGKGLEWVAVISYDGSNKYYADSVKGRFTISRDNSKNTLYLQMNSLRAEDTAVYYCARRLRGSGMDVWGQGTPVTVSS
VL: not shown
notes: as for B3
B11: GC010 (antibody, V domains shown)
VH: B10 VH with R99D, L100E, R101S, G102R, S103R, G104K, M105F, V107Y, P113T
VL: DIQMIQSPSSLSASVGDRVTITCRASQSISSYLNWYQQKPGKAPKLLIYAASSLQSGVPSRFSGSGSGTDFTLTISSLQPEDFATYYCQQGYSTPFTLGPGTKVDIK
notes: as for B3
B12: GC035 (antibody, V domains shown)
VH: B10 VH with Q13R, L100K, R101S, G104S, M105F, V107Y
VL: DIQLTQSPSSLSASVGDRVTITCRAGQTINNYLHWYQQKPGKAPKLLIFAASSLQSGVPSRFSGSGSGTDFTLTISSLQPEDFATYYCQQSYSPPLTFGGGTRVEIK
notes: as for B3

Target: T1, GPC3-A peptide
Experiment: ELISA, peptide coated at 6 µg/mL

binding result | Binder
binds | B1

Target: T2, GPC3-B peptide
Experiment: ELISA, peptide coated at 6 µg/mL

binding result | Binder
binds | B2
binds | B3
binds | B4
binds | B5
binds | B6
binds | B7
binds | B8
binds | B9
binds | B10
binds | B11
binds | B12

Target: T3, GPC3-B3
Experiment: ELISA, overlapping peptide coated at 6 µg/mL

binding result | Binder
binds | B2

Target: T4, GPC3-B8
Experiment: ELISA, overlapping peptide coated at 6 µg/mL

binding result | Binder
binds | B2

Target: T5, Mouse GPC3 (ACRO Biosystems, GP3-M52H3) (mouse, UniProt Q8CFZ4 25-558)
T5 construct: also called mouse Gpc3 protein; mouse GPC3 protein
T5 sequence (Q8CFZ4 25-558 limits assumed): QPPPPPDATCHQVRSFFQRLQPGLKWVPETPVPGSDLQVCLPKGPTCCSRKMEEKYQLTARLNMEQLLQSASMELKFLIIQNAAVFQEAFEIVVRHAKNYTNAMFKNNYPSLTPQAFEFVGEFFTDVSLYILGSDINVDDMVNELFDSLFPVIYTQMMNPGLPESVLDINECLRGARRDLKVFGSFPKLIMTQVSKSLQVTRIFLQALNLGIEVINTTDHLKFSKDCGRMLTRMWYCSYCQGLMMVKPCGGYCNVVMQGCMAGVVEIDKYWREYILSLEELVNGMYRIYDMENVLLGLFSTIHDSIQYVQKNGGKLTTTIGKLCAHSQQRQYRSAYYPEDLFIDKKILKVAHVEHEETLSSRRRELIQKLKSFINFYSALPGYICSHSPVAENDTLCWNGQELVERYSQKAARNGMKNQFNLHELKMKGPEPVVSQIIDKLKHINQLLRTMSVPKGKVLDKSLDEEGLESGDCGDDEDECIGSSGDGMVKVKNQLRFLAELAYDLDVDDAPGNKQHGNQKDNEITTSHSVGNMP
Experiment: ELISA, GPC3 protein coated at 6 µg/mL; × indicates no affinity recognition

binding result | Binder
no binding (tested: 30 nM) | B2
